Laboratory results taken from paper doi:10.1101/2023.10.26.564249.

Target: His6-RpoS (sigma S) (Salmonella enterica serovar Typhimurium 14028s) (UniProt D0ZVL4)
Experiment: EMSA
Settings: LightShift chemiluminescent EMSA kit, 20 uL: 1 ng biotin-DNA, 2 uL binding buffer, 1 ug poly(dI.dC), 1 uL 50% glycerol, 1 uL 1 M KCl (about 50 mM added)

Chain of His6-RpoS (sigma S) (Salmonella enterica serovar Typhimurium 14028s) (D0ZVL4 whole entry): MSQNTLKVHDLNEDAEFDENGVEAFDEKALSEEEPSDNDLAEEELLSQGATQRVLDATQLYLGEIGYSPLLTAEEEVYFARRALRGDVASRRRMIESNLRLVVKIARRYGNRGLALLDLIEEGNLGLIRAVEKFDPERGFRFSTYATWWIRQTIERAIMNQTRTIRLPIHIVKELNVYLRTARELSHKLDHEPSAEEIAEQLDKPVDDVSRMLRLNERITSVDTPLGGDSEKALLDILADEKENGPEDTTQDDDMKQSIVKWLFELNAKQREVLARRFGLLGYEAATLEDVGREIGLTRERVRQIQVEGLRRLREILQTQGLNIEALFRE

Sequence | binding
ACTCGTATGTTTATCATGCAACCTATAAATAAATGTTATATTCAATAACTAATATTACATCTCAAATTCTCTCAAGTATGTCATAACGCTGCAGCAAATAAAAGTCAGTCAGC (double strand) [waaZ promoter] | binds
ACTTCCCCGAGCTTAAAAATGACCCAAACGGGTGTACCGATCTTAGTCTGCTGGCTGGCGCTGTAGCAAAGTTTAATGTCATCGGTAACCGGCTGGATTTAGCGATCCCTCAAATCGCG (double strand) [sthC promoter] | binds
